Reference: patent publication US6942981
Ends that are not written are not given here. * marks the point of attachment. Biotin = O=C1N[C@H]2[C@H](CS[C@H]2CCCCC(=O)*)N1

T1: GST-NeDLG PDZ domains 1-2 fusion protein (Mus musculus (Mouse), UniProt P70175 147-332)
T1 construct: also called NeDLG1; not shown: glutathione S-transferase (GST) encoded by pGEX-3X
T1 chain: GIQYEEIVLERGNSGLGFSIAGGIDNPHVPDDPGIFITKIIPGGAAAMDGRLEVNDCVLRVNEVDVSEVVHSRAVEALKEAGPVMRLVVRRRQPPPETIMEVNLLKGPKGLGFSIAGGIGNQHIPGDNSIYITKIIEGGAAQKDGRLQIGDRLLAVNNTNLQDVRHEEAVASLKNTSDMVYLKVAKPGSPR

T2: GST-LIM (Human LIM protein) PDZ domain fusion protein (human, UniProt Q96HC4 2-85)
T2 construct: not shown: glutathione S-transferase (GST) encoded by pGEX-3X
T2 sequence: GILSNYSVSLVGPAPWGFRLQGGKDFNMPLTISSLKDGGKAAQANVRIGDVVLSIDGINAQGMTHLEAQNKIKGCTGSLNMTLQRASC

T3: GST-AF6 PDZ domain fusion protein (Homo sapiens (Human), UniProt P55196 1001-1093)
T3 construct: also called af-6 protein; not shown: glutathione S-transferase (GST) encoded by pGEX-3X
T3 sequence: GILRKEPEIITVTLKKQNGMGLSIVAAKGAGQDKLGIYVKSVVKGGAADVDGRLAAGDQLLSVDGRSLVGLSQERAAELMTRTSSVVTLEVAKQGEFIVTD

T4: GST-41.8 kD (hypothetical 41.8 kD protein) PDZ domain fusion protein (Mus musculus (Mouse), UniProt Q9EQZ7 682-763)
T4 construct: not shown: glutathione S-transferase (GST) encoded by pGEX-3X
T4 sequence: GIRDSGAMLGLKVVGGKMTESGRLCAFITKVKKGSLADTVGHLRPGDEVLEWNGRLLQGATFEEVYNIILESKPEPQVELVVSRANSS

T5: GST-MINT3 PDZ domain fusion protein (human)
T5 construct: also called human MINT3; not shown: glutathione S-transferase (GST) encoded by pGEX-3X
T5 chain: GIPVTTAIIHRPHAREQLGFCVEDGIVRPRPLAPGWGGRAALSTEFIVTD

T6: GST-TAX2 PDZ domain fusion protein (human, UniProt O14908 129-216)
T6 construct: not shown: glutathione S-transferase (GST) encoded by pGEX-3X
T6 chain: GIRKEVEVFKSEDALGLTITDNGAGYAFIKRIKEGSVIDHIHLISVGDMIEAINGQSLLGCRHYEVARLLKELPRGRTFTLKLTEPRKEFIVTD

T7: GST-SYN1a (alpha1-syntrophin) PDZ domain fusion protein (Homo sapiens (Human), UniProt Q13424 84-179)
T7 construct: also called SYN 1 α; not shown: glutathione S-transferase (GST) encoded by pGEX-3X
T7 sequence: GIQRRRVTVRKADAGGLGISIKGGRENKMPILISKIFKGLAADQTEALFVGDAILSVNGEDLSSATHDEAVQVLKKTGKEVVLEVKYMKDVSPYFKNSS

B1: CD34 C-terminal peptide AA7L (peptide)
peptide: Biotin-QATSRNGHSARQHVVADTEL
B2: CD148 peptide AA55L (ending KTIA) (peptide)
peptide: Biotin-TIYENLAPVTTFGKTIA

Tests used:
[1] = target: T8, GST-PSD95 PDZ domains 1-3 fusion protein (human, UniProt P31016 58-395 (rat entry)); assay: A assay
T8 construct: not shown: glutathione S-transferase (GST) encoded by pGEX-3X

[2] = target: T1, GST-NeDLG PDZ domains 1-2 fusion protein; assay: G assay
[3] = target: T2, GST-LIM (Human LIM protein) PDZ domain …; assay: A/G assays
[4] = target: T3, GST-AF6 PDZ domain fusion protein; assay: A/G assays
[5] = target: T4, GST-41.8 kD (hypothetical 41.8 kD …); assay: A/G assays
[6] = target: T9, GST-TIAM1 PDZ domain fusion protein (Homo sapiens (Human), UniProt Q13009 845-932); assay: A/G assays
T9 construct: also called T-lymphoma invasion and metastasis inducing protein 1; not shown: glutathione S-transferase (GST) encoded by pGEX-3X

[7] = target: T5, GST-MINT3 PDZ domain fusion protein; assay: A/G assays
[8] = target: T6, GST-TAX2 PDZ domain fusion protein; assay: A/G assays
[9] = target: T7, GST-SYN1a (alpha1-syntrophin) PDZ …; assay: A/G assays
[10] = target: T1, GST-NeDLG PDZ domains 1-2 fusion protein; assay: A/G assays

T9 sequence (Q13009 other isoform, or with tags, fused parts or gaps): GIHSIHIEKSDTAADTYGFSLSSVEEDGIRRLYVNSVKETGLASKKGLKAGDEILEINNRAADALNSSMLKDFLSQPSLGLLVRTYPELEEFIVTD
T8 sequence (P31016 other isoform, or with tags, fused parts or gaps): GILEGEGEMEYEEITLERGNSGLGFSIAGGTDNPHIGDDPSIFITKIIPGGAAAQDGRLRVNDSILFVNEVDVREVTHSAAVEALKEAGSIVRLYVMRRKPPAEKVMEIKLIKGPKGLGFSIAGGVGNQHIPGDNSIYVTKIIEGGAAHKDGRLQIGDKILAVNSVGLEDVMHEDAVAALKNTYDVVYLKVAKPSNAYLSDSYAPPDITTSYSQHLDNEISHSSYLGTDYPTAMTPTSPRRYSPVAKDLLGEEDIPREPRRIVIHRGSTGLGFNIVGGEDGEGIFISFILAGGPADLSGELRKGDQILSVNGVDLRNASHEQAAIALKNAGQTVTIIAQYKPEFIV

| Binder | binding result [1] | binding result [2] | binding result [3] | binding result [4] | binding result [5] | binding result [6] | binding result [7] | binding result [8] | binding result [9] | binding result [10] |
| --- | --- | --- | --- | --- | --- | --- | --- | --- | --- | --- |
| B1 | binds | binds | no binding | no binding | no binding | no binding | no binding | no binding | no binding | – |
| B2 | – | – | no binding | no binding | no binding | no binding | no binding | no binding | no binding | no binding |
